This note sets out measurements from US20230287088A1 (BIONTECH, published 2023).

B1: P043.A.00032.C04 (antibody, V domains shown)
VH: QSLEESGGRLVTPGTPLTLTCTASGFSLSSYWMSWVRQAPGKGLEWIGIIYVSGSTYYASWAKGRFTISKTSTTVDLKMTSLTTEDTATYFCARVDYSTGWPLFNIWGPGTLVTVSL
VL: AQVLTQTASPVSAAVGGTVTINCQSSQSVYDNNWLGWYQQKPGQPPKLLIYGASILASGVPSRFKGSGSGTQFTLTISDLESDDAATYYCQGGCSGNTFVFGGGTEVVVK
notes: also called 452; protein sample ID 452
B2: P043.A.00036.C07 (antibody, V domains shown)
VH: QSLEESGGDLVKPGASLTLTCTASGFSFSSSYWICWVRQAPGKGLEWIGCIYTGSGSTWYASWAKGRFTISKTSSTTVTLQMTSLTAADTATYFCARGYGSYMYDFWGPGTLVTVSS
VL: DVVMTQTPASVEAAVGGTVTIKCQASQSISTALAWYQQKPGQPPKLLIYSASTLESGVPSRFKGSGSGTEFTLAISDLESADAATYYCQGADGSSSSFGGGTEVVVK
notes: also called 448; protein sample ID 448
B3: 460 (bispecific antibody)
heavy chain: QSVEESGGRLVTPGTPLTLTCTVSGFSLSSYAMNWVRQAPGKGLEWIGIISSSGSTYYASWAKGRFTISKTSTTVDLKITSPTTEDTATYFCARVGAGYAGYGYDNYYGMDPWGPGTLVTVSSASTKGPSVFPLAPSSKSTSGGTAALGCLVKDYFPEPVTVSWNSGALTSGVHTFPAVLQSSGLYSLSSVVTVPSSSLGTQTYICNVNHKPSNTKVDKRVEPKSCDKTHTCPPCPAPEAAGGPSVFLFPPKPKDTLMISRTPEVTCVVVDVSHEDPEVKFNWYVDGVEVHNAKTKPREEQYNSTYRVVSVLTVLHQDWLNGKEYKCKVSNKALPAPIEKTISKAKGQPREPQVYTLPPSREEMTKNQVSLTCLVKGFYPSDIAVEWESNGQPENNYKTTPPVLDSDGSFFLYSKLTVDKSRWQQGNVFSCSVLHEALHSHYTQKSLSLSPGK
light chain fused to scFv: AIQMTQSPSSLAASVGDTVTITCKASEDIGYGLNWYQQKLGIAPKLLIYGANTLESGVPSRFSGSGSETDYTLTISSVQAEDAGIYYCQQGYSTPLTFGAGTKVEIKRTVAAPSVFIFPPSDEQLKSGTASVVCLLNNFYPREAKVQWKVDNALQSGNSQESVTEQDSKDSTYSLSSTLTLSKADYEKHKVYACEVTHQGLSSPVTKSFNRGECDVPGGSGGGGSGGGGSGGGGSQMQLVQSGTEVKKPGESLKISCKGSGYGFITYWIGWVRQMPGKCLEWMGIIYPGDSETRYSPSFQGQVTISADKSINTAYLQWSSLKASDTAIYYCAGGSGISTPMDVWGQGTTVTVGGGGSGGGGSGGGGSGGGGSDIQLTQSPDSLAVSLGERATINCKSSQSVLYSSINKNYLAWYQQKPGQPPKLLIYWASTRESGVPDRFSGSGSGTDFTLTISSLQAEDVAVYYCQQYYSTPYTFGCGTKVEIK
notes: also called LC of P043.A.00020.D06 with a C-terminal fusion of a scFv of anti-S1 antibody; HC of P043.A.00020.D06 as IgG1-LALA-LS
B4: 454 (bispecific antibody)
heavy chain: QSVEESGGRLVTPGTPLTLTCTVSGFSLSKYAMSWVRQAPGKGLEWIGIISSGGSTYYASWAKGRFTISKTSSTTVDLKITSPTTEDTATYFCARAGYPGYSPHYFNIWGPGTLVTVSLASTKGPSVFPLAPSSKSTSGGTAALGCLVKDYFPEPVTVSWNSGALTSGVHTFPAVLQSSGLYSLSSVVTVPSSSLGTQTYICNVNHKPSNTKVDKRVEPKSCDKTHTCPPCPAPEAAGGPSVFLFPPKPKDTLMISRTPEVTCVVVDVSHEDPEVKFNWYVDGVEVHNAKTKPREEQYNSTYRVVSVLTVLHQDWLNGKEYKCKVSNKALPAPIEKTISKAKGQPREPQVYTLPPSREEMTKNQVSLTCLVKGFYPSDIAVEWESNGQPENNYKTTPPVLDSDGSFFLYSKLTVDKSRWQQGNVFSCSVLHEALHSHYTQKSLSLSPGK
light chain fused to scFv: B3 light chain fused to scFv with G32E, S63T, L96P
notes: also called LC of P043.A.00023.A08 with a C-terminal fusion of a scFv of anti-S1 antibody; HC of P043.A.00023.A08 as IgG1-LALA-LS
B5: 461 (bispecific antibody)
heavy chain: QSVEESGGRLVTPGTPLTLTCTVSGFSLSSYAMSWVRQAPGKGLEWIGIINSGRSTYYASWAKGRFTISKTSTTVDLKITSPTTEDTATYFCARDATSIGYYRYYGMDPWGPGTLVTVSSASTKGPSVFPLAPSSKSTSGGTAALGCLVKDYFPEPVTVSWNSGALTSGVHTFPAVLQSSGLYSLSSVVTVPSSSLGTQTYICNVNHKPSNTKVDKRVEPKSCDKTHTCPPCPAPEAAGGPSVFLFPPKPKDTLMISRTPEVTCVVVDVSHEDPEVKFNWYVDGVEVHNAKTKPREEQYNSTYRVVSVLTVLHQDWLNGKEYKCKVSNKALPAPIEKTISKAKGQPREPQVYTLPPSREEMTKNQVSLTCLVKGFYPSDIAVEWESNGQPENNYKTTPPVLDSDGSFFLYSKLTVDKSRWQQGNVFSCSVLHEALHSHYTQKSLSLSPGK
light chain fused to scFv: B3 light chain fused to scFv
notes: also called LC of P043.A.00018.C02 with a C-terminal fusion of a scFv of anti-S1 antibody; HC of P043.A.00018.C02 as IgG1-LALA-LS
B6: 455 (bispecific antibody)
heavy chain: QSVEESGGRLVTPGTPLTLTCTVSGFSLSSYAMSWVRQAPGKGLEWIGIISSSGSTYYASWAKGRFTISKTSTTVDLKITSPTTEDTATYFCARAMYPGYSTGVYNIWGPGTLVTVSLASTKGPSVFPLAPSSKSTSGGTAALGCLVKDYFPEPVTVSWNSGALTSGVHTFPAVLQSSGLYSLSSVVTVPSSSLGTQTYICNVNHKPSNTKVDKRVEPKSCDKTHTCPPCPAPEAAGGPSVFLFPPKPKDTLMISRTPEVTCVVVDVSHEDPEVKFNWYVDGVEVHNAKTKPREEQYNSTYRVVSVLTVLHQDWLNGKEYKCKVSNKALPAPIEKTISKAKGQPREPQVYTLPPSREEMTKNQVSLTCLVKGFYPSDIAVEWESNGQPENNYKTTPPVLDSDGSFFLYSKLTVDKSRWQQGNVFSCSVLHEALHSHYTQKSLSLSPGK
light chain fused to scFv: B3 light chain fused to scFv with G32E, S93N, L96N
notes: also called LC of P043.A.00017.E07 with a C-terminal fusion of a scFv of anti-S1 antibody; HC of P043.A.00017.E07 as IgG1-LALA-LS
B7: 462 (bispecific antibody)
heavy chain: QSVEESGGRLVTPGTPLTLTCTVSGFSLSSYAMSWVRQAPGKGLEWIGIISSSGTTYYASWAKGPFTISKTSTTVDLKITSPTTEDTATYFCARGGAGYGYAHYYGMDPWGPGTLVTVSSASTKGPSVFPLAPSSKSTSGGTAALGCLVKDYFPEPVTVSWNSGALTSGVHTFPAVLQSSGLYSLSSVVTVPSSSLGTQTYICNVNHKPSNTKVDKRVEPKSCDKTHTCPPCPAPEAAGGPSVFLFPPKPKDTLMISRTPEVTCVVVDVSHEDPEVKFNWYVDGVEVHNAKTKPREEQYNSTYRVVSVLTVLHQDWLNGKEYKCKVSNKALPAPIEKTISKAKGQPREPQVYTLPPSREEMTKNQVSLTCLVKGFYPSDIAVEWESNGQPENNYKTTPPVLDSDGSFFLYSKLTVDKSRWQQGNVFSCSVLHEALHSHYTQKSLSLSPGK
light chain fused to scFv: B3 light chain fused to scFv
notes: also called LC of P043.A.00024.C11 with a C-terminal fusion of a scFv of anti-S1 antibody; HC of P043.A.00024.C11 as IgG1-LALA-LS

Substitutions are numbered along the chain they refer to.

The target of one experiment is T1, His-tagged SARS-CoV S1-RBD (Sino Biologicals) (SARS-CoV, UniProt P59594 306-527).
T1 construct: domain: S1-RBD; Bought reagent
Put plainly: ELISA on coated His-tagged SARS-CoV S1-RBD [D00020 Figure 8A continued].
For the molecule B1, the binding result is listed as “no binding (tested: 1000 ng/ml)”.

On to B2, for which the binding result is recorded as “no binding (tested: 1000 ng/ml)”.

A further experiment addresses T2, Mouse-Fc-tagged SARS-CoV2 S1-RBD (Sino Biologicals) recombinant protein (SARS-CoV-2, UniProt P0DTC2 319-541).
T2 construct: domain: S1-RBD
Put plainly: competition ELISA: blocks S1-RBD-mFc binding to coated ACE-2 ECD. For orientation: An ELISA detects its analyte on a solid surface through an enzyme-linked reagent.
Usually IC50 stands for the concentration that inhibits the measured activity by half. A word on the IC90: it is the point of the concentration-response curve where the effect stands at 90%. Take B3: the IC50 came out at 0.0765 µg/mL and the IC90 was determined as 5.69 µg/mL.

With B4, the half-inhibitory concentration (IC50) was determined as 0.0435 µg/mL and the IC90 is 0.453 µg/mL.

Consider B5, for which the IC50 came to 0.0525 µg/mL and the IC90 was determined as 0.913 µg/mL.

As for B6, the IC50 was determined as 0.0481 µg/mL and the 90% effect concentration (IC90) was determined as 0.868 µg/mL.

For the molecule B7, the concentration for half-maximal inhibition (IC50) is 0.0464 µg/mL and the IC90 was 0.948 µg/mL.

Another experiment concerns the target T2, Mouse-Fc-tagged SARS-CoV2 S1-RBD (Sino …). The description is as above. The source holds these as a separate data set.
Take B1: the IC50 was found to be 0.115 µg/mL.

B2: the IC50 is 0.0434 µg/mL.

Another experiment has the same target. Description: ELISA on coated S1-RBD-mFc.
A word on the EC50: it is the concentration needed to bring the measured effect to its halfway point. B1: the EC50 amounted to 0.007 µg/mL.

For B2, the EC50 worked out at 0.007 µg/mL.

Another experiment deals with T3, Human-Fc-tagged SARS-CoV2 S1 recombinant protein (Sino Biologicals) (SARS-CoV-2, UniProt P0DTC2 16-685).
T3 construct: domain: S1; Bought reagent
Put plainly: ELISA on coated S1-hFc, 3 µg/ml; rabbit antibody in B-cell supernatant.
On to B1, for which the 50% effective concentration (EC50) was determined as 0.0265 µg/mL.

Regarding B2, the EC50 was 0.0387 µg/mL.

The target in the next experiment is T2, Mouse-Fc-tagged SARS-CoV2 S1-RBD (Sino …). Description: ELISA on coated S1-RBD-mFc. This is another data set of the same source.
Turning to B3, the EC50 came out at 0.0153 µg/mL.

As to B4, the EC50 was determined as 0.0178 µg/mL.

Take B5: the EC50 came to 0.0128 µg/mL.

Take B6: the EC50 amounted to 0.0116 µg/mL.

Turning to B7, the EC50 was 0.0119 µg/mL.

In a further experiment the target is T3, Human-Fc-tagged SARS-CoV2 S1 ….
Assay: not given
Take B1: the IC50 was determined as 0.0147 µg/mL.

B2: the IC50 amounted to 0.0141 µg/mL.
